Data reported in the supplement of paper PMC5998384.

Tests used:
HeLa Kyoto [1] = test: thermal stability score vs G1/S (z-score of summed log2 fold changes over temperatures); higher = more thermally stable than in G1/S
HeLa Kyoto [2] = test: solubility change mitosis vs G1/S (difference of NP-40 vs SDS log2 ratios) (log2 ratio difference); higher = more soluble in mitosis
HeLa Kyoto [3] = test: solubility in G1/S (NP-40 vs SDS abundance) (log2 ratio); higher = more soluble; details: cell cycle stage: G1/S
HeLa Kyoto [4] = test: melting temperature (median over replicates), in situ; higher = more thermally stable
[5] = cell cycle stage: early G1 (4.5 h after nocodazole release)
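Wherever melting temperature (median over replicates), in situ is given: HeLa Kyoto cells synchronized by double thymidine or nocodazole block, proteins quantified by TMT10plex mass spectrometry, three independent biological replicates.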
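Wherever solubility change mitosis vs G1/S (difference of NP-40 vs SDS log2 ratios) is given: synchronized HeLa Kyoto cells (double thymidine block for G1/S, nocodazole release for mitosis), protein amounts in NP-40 versus SDS lysates quantified by mass spectrometry, three biological replicates.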
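Wherever solubility in G1/S (NP-40 vs SDS abundance) is given: HeLa Kyoto cells arrested at G1/S by double thymidine block, proteins quantified by TMT10plex mass spectrometry in mild NP-40 versus SDS extracts, three biological replicates.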
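Wherever thermal stability score vs G1/S (z-score of summed log2 fold changes over temperatures) is given: synchronized HeLa Kyoto cells, proteins quantified by TMT10plex mass spectrometry, three biological replicates, mitosis taken 0.5 h after nocodazole release, G1/S directly after double thymidine block.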

| Substance | thermal stability score (HeLa Kyoto [1]; [5]) | thermal stability score (HeLa Kyoto [1]; cell cycle stage: mitosis) | solubility change mitosis (log2) (HeLa Kyoto [2]) | solubility in G1/S (log2) (HeLa Kyoto [3]) | melting temperature (HeLa Kyoto [4]; cell cycle stage: G1/S) [°C] | melting temperature (HeLa Kyoto [4]; cell cycle stage: mitosis) [°C] |
| --- | --- | --- | --- | --- | --- | --- |
| MAGFWVGTAPLVAAGRRGRWPPQQLMLSAALRTLKHVLYYSRQCLMVSRNLGSVGYDPNEKTFDKILVANRGEIACRVIRTCKKMGIKTVAIHSDVDASSVHVKMADEAVCVGPAPTSKSYLNMDAIMEAIKKTRAQAVHPGYGFLSENKEFARCLAAEDVVFIGPDTHAIQAMGDKIESKLLAKKAEVNTIPGFDGVVKDAEEAVRIAREIGYPVMIKASAGGGGKGMRIAWDDEETRDGFRLSSQEAASSFGDDRLLIEKFIDNPRHIEIQVLGDKHGNALWLNERECSIQRRNQKVVEEAPSIFLDAETRRAMGEQAVALARAVKYSSAGTVEFLVDSKKNFYFLEMNTRLQVEHPVTECITGLDLVQEMIRVAKGYPLRHKQADIRINGWAVECRVYAEDPYKSFGLPSIGRLSQYQEPLHLPGVRVDSGIQPGSDISIYYDPMISKLITYGSDRTEALKRMADALDNYVIRGVTHNIALLREVIINSRFVKGDISTKFLSDVYPDGFKGHMLTKSEKNQLLAIASSLFVAFQLRAQHFQENSRMPVIKPDIANWELSVKLHDKVHTVVASNNGSVFSVEVDGSKLNVTSTWNLASPLLSVSVDGTQRTVQCLSREAGGNMSIQFLGTVYKVNILTRLAAELNKFMLEKVTEDTSSVLRSPMPGVVVAVSVKPGDAVAEGQEICVIEAMKMQNSMTAGKTGTVKSVHCQAGDTVGEGDLLVELE [PCCA] | -0.863 | -1.1 | -0.122 | 0.0361 | 53.7 | 53.1 |
| MASFVTEVLAHSGRLEKEDLGTRISRLTRRVEEIKGEVCNMISKKYSEFLPSMQSAQGLITQVDKLSEDIDLLKSRIESEVRRDLHVSTGEFTDLKQQLERDSVVLSLLKQLQEFSTAIEEYNCALTEKKYVTGAQRLEEAQKCLKLLKSRKCFDLKILKSLSMELTIQKQNILYHLGEEWQKLIVWKFPPSKDTSSLESYLQTELHLYTEQSHKEEKTPMPPISSVLLAFSVLGELHSKLKSFGQMLLKYILRPLASCPSLHAVIESQPNIVIIRFESIMTNLEYPSPSEVFTKIRLVLEVLQKQLLDLPLDTDLENEKTSTVPLAEMLGDMIWEDLSECLIKNCLVYSIPTNSSKLQQYEEIIQSTEEFENALKEMRFLKGDTTDLLKYARNINSHFANKKCQDVIVAARNLMTSEIHNTVKIIPDSKINVPELPTPDEDNKLEVQKVSNTQYHEVMNLEPENTLDQHSFSLPTCRISESVKKLMELAYQTLLEATTSSDQCAVQLFYSVRNIFHLFHDVVPTYHKENLQKLPQLAAIHHNNCMYIAHHLLTLGHQFRLRLAPILCDGTATFVDLVPGFRRLGTECFLAQMRAQKGELLERLSSARNFSNMDDEENYSAASKAVRQVLHQLKRLGIVWQDVLPVNIYCKAMGTLLNTAISEVIGKITALEDISTEDGDRLYSLCKTVMDEGPQVFAPLSEESKNKKYQEEVPVYVPKWMPFKELMMMLQASLQEIGDRWADGKGPLAAAFSSSEVKALIRALFQNTERRAAALAKIK [ZW10] | 0.485 | 1.13 | -0.19 | -0.218 | 49.6 | 49.5 |
| MKRPKLKKASKRMTCHKRYKIQKKVREHHRKLRKEAKKRGHKKPRKDPGVPNSAPFKEALLREAELRKQRLEELKQQQKLDRQKELEKKRKLETNPDIKPSNVEPMEKEFGLCKTENKAKSGKQNSKKLYCQELKKVIEASDVVLEVLDARDPLGCRCPQVEEAIVQSGQKKLVLILNKSDLVPKENLESWLNYLKKELPTVVFRASTKPKDKGKITKRVKAKKNAAPFRSEVCFGKEGLWKLLGGFQETCSKAIRVGVIGFPNVGKSSIINSLKQEQMCNVGVSMGLTRSMQVVPLDKQITIIDSPSFIVSPLNSSSALALRSPASIEVVKPMEAASAILSQADARQVVLKYTVPGYRNSLEFFTVLAQRRGMHQKGGIPNVEGAAKLLWSEWTGASLAYYCHPPTSWTPPPYFNESIVVDMKSGFNLEELEKNNAQSIRAIKGPHLANSILFQSSGLTNGIIEEKDIHEELPKRKERKQEEREDDKDSDQETVDEEVDENSSGMFAAEETGEALSEETTAGEQSTRSFILDKIIEEDDAYDFSTDYV [GNL3] | 5.07 | 8.85 | 0.867 | -1.72 | 45.3 | 50.2 |
| MASPGCLLCVLGLLLCGAASLELSRPHGDTAKKPIIGILMQKCRNKVMKNYGRYYIAASYVKYLESAGARVVPVRLDLTEKDYEILFKSINGILFPGGSVDLRRSDYAKVAKIFYNLSIQSFDDGDYFPVWGTCLGFEELSLLISGECLLTATDTVDVAMPLNFTGGQLHSRMFQNFPTELLLSLAVEPLTANFHKWSLSVKNFTMNEKLKKFFNVLTTNTDGKIEFISTMEGYKYPVYGVQWHPEKAPYEWKNLDGISHAPNAVKTAFYLAEFFVNEARKNNHHFKSESEEEKALIYQFSPIYTGNISSFQQCYIFD [GGH] | 0.878 | -0.77 | -0.0381 | 0.326 | 60.5 | 60 |
| MNEVSVIKEGWLHKRGEYIKTWRPRYFLLKSDGSFIGYKERPEAPDQTLPPLNNFSVAECQLMKTERPRPNTFVIRCLQWTTVIERTFHVDSPDEREEWMRAIQMVANSLKQRAPGEDPMDYKCGSPSDSSTTEEMEVAVSKARAKVTMNDFDYLKLLGKGTFGKVILVREKATGRYYAMKILRKEVIIAKDEVAHTVTESRVLQNTRHPFLTALKYAFQTHDRLCFVMEYANGGELFFHLSRERVFTEERARFYGAEIVSALEYLHSRDVVYRDIKLENLMLDKDGHIKITDFGLCKEGISDGATMKTFCGTPEYLAPEVLEDNDYGRAVDWWGLGVVMYEMMCGRLPFYNQDHERLFELILMEEIRFPRTLSPEAKSLLAGLLKKDPKQRLGGGPSDAKEVMEHRFFLSINWQDVVQKKLLPPFKPQVTSEVDTRYFDDEFTAQSITITPPDRYDSLGLLELDQRTHFPQFSYSASIRE [AKT2] | 1.03 | 0.619 | -0.26 | -0.0498 | 50.5 | 50.2 |
| MASILLRSCRGRAPARLPPPPRYTVPRGSPGDPAHLSCASTLGLRNCLNVPFGCCTPIHPVYTSSRGDHLGCWALRPECLRIVSRAPWTSTSVGFVAVGPQCLPVRGWHSSRPVRDDSVVEKSLKSLKDKNKKLEEGGPVYSPPAEVVVKKSLGQRVLDELKHYYHGFRLLWIDTKIAARMLWRILNGHSLTRRERRQFLRICADLFRLVPFLVFVVVPFMEFLLPVAVKLFPNMLPSTFETQSLKEERLKKELRVKLELAKFLQDTIEEMALKNKAAKGSATKDFSVFFQKIRETGERPSNEEIMRFSKLFEDELTLDNLTRPQLVALCKLLELQSIGTNNFLRFQLTMRLRSIKADDKLIAEEGVDSLNVKELQAACRARGMRALGVTEDRLRGQLKQWLDLHLHQEIPTSLLILSRAMYLPDTLSPADQLKSTLQTLPEIVAKEAQVKVAEVEGEQVDNKAKLEATLQEEAAIQQEHREKELQKRSEVAKDFEPERVVAAPQRPGTEPQPEMPDTVLQSETLKDTAPVLEGLKEEEITKEEIDILSDACSKLQEQKKSLTKEKEELELLKEDVQDYSEDLQEIKKELSKTGEEKYVEESKASKRLTKRVQQMIGQIDGLISQLEMDQQAGKLAPANGMPTGENVISVAELINAMKQVKHIPESKLTSLAAALDENKDGKVNIDDLVKVIELVDKEDVHISTSQVAEIVATLEKEEKVEEKEKAKEKAEKEVAEVKS [LETM1] | -0.277 | -1.56 | -0.0749 | 0.088 | 52.9 | 52.3 |
| MNSAEQTVTWLITLGVLESPKKTISDPEGFLQASLKDGVVLCRLLERLLPGTIEKVYPEPRSESECLSNIREFLRGCGASLRLELLFPPSQPPQHLVTTILLSASTFDANDLYQGQNFNKVLSSLVTLNKVTADIGLGSDSVCARPSSHRIKSFDSLGSQSLHTRTSKLFQGQYRSLDMTDNSNNQLVVRAKFNFQQTNEDELSFSKGDVIHVTRVEEGGWWEGTLNGRTGWFPSNYVREVKASEKPVSPKSGTLKSPPKGFDTTAINKSYYNVVLQNILETENEYSKELQTVLSTYLRPLQTSEKLSSANISYLMGNLEEICSFQQMLVQSLEECTKLPEAQQRVGGCFLNLMPQMKTLYLTYCANHPSAVNVLTEHSEELGEFMETKGASSPGILVLTTGLSKPFMRLDKYPTLLKELERHMEDYHTDRQDIQKSMAAFKNLSAQCQEVRKRKELELQILTEAIRNWEGDDIKTLGNVTYMSQVLIQCAGSEEKNERYLLLFPNVLLMLSASPRMSGFIYQGKLPTTGMTITKLEDSENHRNAFEISGSMIERILVSCNNQQDLQEWVEHLQKQTKVTSVGNPTIKPHSVPSHTLPSHPVTPSSKHADSKPAPLTPAYHTLPHPSHHGTPHTTINWGPLEPPKTPKPWSLSCLRPAPPLRPSAALCYKEDLSKSPKTMKKLLPKRKPERKPSDEEFASRKSTAALEEDAQILKVIEAYCTSAKTRQTLNSTWQGTDLMHNHVLADDDQPSLDSLGRRSSLSRLEPSDLSEDSDYDSIWTAHSYRMGSTSRKSCCSYISHQN [ARHGEF7] | 0.815 | 1.6 | -0.0942 | 0.105 | 48.5 | 49.6 |
| MAATLKSLKLVRYRAFCSPSAFGAVRSVSYWNVSSTQHGGQDPPEHISLCHSAKKVKNICSTFSSRRILTTSSAHPGLEFSKTSSSKASTLQLGSPRATGVDEEDVEVFDSFENMRVFLQLRPEYRVHSYNASETSQLLSVSEGELILHKVRVNQNNLQAQVIVDYLCKLSSLPAEQHPVLLGSTSFALLCQLSVKKIQLFDTQDLINVLKAFVILGIPHSHSMLDVYETKCCHQVWEMNMDQLLLVADLWRYLGRKVPRFLNIFSSYLNLHWKDLSLSQLVHLIYVIGENRQVSQDLMQKLESLILKYIDLINLEEVGTICLGFFKSSTNLSEFVMRKIGDLACANIQHLSSRSLVNIVKMFRFTHVDHINFMKQIGEIAPQRIPSLGVQGVMHLTLYCSALRFLNEGVMNAVAASLPPRVAHCRSKDVAKILWSFGTLNYKPPNAEEFYSSLISEIHRKMPEFNQYPEHLPTCLLGLAFLEYFPVELIDFALSPGFVRLAQERTKFDLLKELYTLDGTVGIECPDYRGNRLSTHLQQEGSELLWYLAEKDMNSKPEFLETVFLLETMLGGPQYVKHHMILPHTRSSDLEVQLDVNLKPLPFNREATPAENVAKLRLEHVGVSLTDDLMNKLLKGKARGHFQGKTESEPGQQPMELENKAAVPLGGFLCNVADKSGAMEMAGLCPAACMQTPRMKLAVQFTNRNQYCYGSRDLLGLHNMKRRQLARLGYRVVELSYWEWLPLLKRTRLEKLAFLHEKVFTSAL [FASTKD5] | 0.139 | 1.05 | -0.0689 | -0.184 | 49.5 | 49.8 |
| MAARWRFWCVSVTMVVALLIVCDVPSASAQRKKEMVLSEKVSQLMEWTNKRPVIRMNGDKFRRLVKAPPRNYSVIVMFTALQLHRQCVVCKQADEEFQILANSWRYSSAFTNRIFFAMVDFDEGSDVFQMLNMNSAPTFINFPAKGKPKRGDTYELQVRGFSAEQIARWIADRTDVNIRVIRPPNYAGPLMLGLLLAVIGGLVYLRRSNMEFLFNKTGWAFAALCFVLAMTSGQMWNHIRGPPYAHKNPHTGHVNYIHGSSQAQFVAETHIVLLFNGGVTLGMVLLCEAATSDMDIGKRKIMCVAGIGLVVLFFSWMLSIFRSKYHGYPYSFLMS [MAGT1] | 2.09 | 2.05 | -0.0398 | -0.189 | 53.9 | 53.3 |
| MAFVTRQFMRSVSSSSTASASAKKIIVKHVTVIGGGLMGAGIAQVAAATGHTVVLVDQTEDILAKSKKGIEESLRKVAKKKFAENLKAGDEFVEKTLSTIATSTDAASVVHSTDLVVEAIVENLKVKNELFKRLDKFAAEHTIFASNTSSLQITSIANATTRQDRFAGLHFFNPVPVMKLVEVIKTPMTSQKTFESLVDFSKALGKHPVSCKDTPGFIVNRLLVPYLMEAIRLYERGDASKEDIDTAMKLGAGYPMGPFELLDYVGLDTTKFIVDGWHEMDAENPLHQPSPSLNKLVAENKFGKKTGEGFYKYK [HADH] | -2.07 | -1.2 | 0.00527 | 0.267 | 53.4 | 53.7 |
| TP53BP1 | -3.39 | -2.67 | -0.107 | -0.0663 | 49.9 | 50.8 |
